In patent publication US20150004189A1 (published 2015):

Tests used:
[1] = biological target: HLA DQ molecule DQB1*0503 (human); assay: inhibition of radiolabeled peptide binding to purified HLA DQ
[2] = biological target: HLA DQ molecule DQB1*0202 (human); assay: as above
[3] = biological target: HLA DQ molecule DQB1*0602 (human); assay: as above
[4] = biological target: T1, HLA-DP molecule DPB1*0501 (human, UniProt P20036 29-222; P04440 30-225, limits assumed); assay: inhibition of radiolabeled peptide binding to purified HLA-DP
T1 MHC II alpha: not shown
T1 MHC II beta: not shown

[5] = biological target: HLA-DP molecule DPB1*2001 (human); assay: as above
[6] = biological target: T2, HLA-DP molecule DPB1*0101 (human, UniProt P20036 29-222; P04440 30-225, limits assumed); assay: as above
T2 MHC II alpha: not shown
T2 MHC II beta: not shown

[7] = biological target: T3, HLA-DP molecule DPB1*0201 (human, UniProt P20036 29-222; P04440 30-225, limits assumed); assay: as above
T3 MHC II alpha: not shown
T3 MHC II beta: not shown

[8] = biological target: HLA-DQ molecule DQB1*0502 (human); assay: competition: inhibition of radiolabeled peptide binding to purified HLA
[9] = biological target: HLA-DQ molecule DQB1*0503 (human); assay: as above
[10] = biological target: HLA-DQ molecule DQB1*0602 (human); assay: as above
[11] = biological target: HLA-DQ molecule DQB1*0202 (human); assay: as above
[12] = biological target: HLA-DQ molecule DQB1*0202 (human); assay: inhibition of radiolabeled peptide binding to purified HLA-DQ
[13] = biological target: HLA-DQ molecule DQB1*0602 (human); assay: as above
[14] = biological target: T4, HLA-DQ molecule DQB1*0402 (human, UniProt P01909 24-216; P01920 33-230, limits assumed); assay: as above
T4 MHC II alpha: not shown
T4 MHC II beta: not shown

[15] = biological target: T5, HLA-DQ molecule DQB1*0302 (human, UniProt P01909 24-216; P01920 33-230, limits assumed); assay: as above
T5 MHC II alpha: not shown
T5 MHC II beta: not shown

[16] = biological target: HLA-DQ molecule DQB1*0301 (human, UniProt P01909 24-216; P01920 33-230, limits assumed); assay: as above
[17] = biological target: HLA-DQ molecule DQB1*0503 (human); assay: as above
[18] = biological target: HLA DQ molecule DQB1*0502 (human); assay: inhibition of radiolabeled peptide binding to purified HLA DQ
[19] = biological target: HLA DQ molecule DQB1*0602 (human); assay: inhibition of radiolabeled peptide binding to purified HLA class II
[20] = biological target: HLA DQ molecule DQB1*0202 (human); assay: as above
[21] = biological target: HLA DQ molecule DQB1*0502 (human); assay: as above
[22] = biological target: HLA DQ molecule DQB1*0503 (human); assay: as above
[23] = biological target: HLA-DP molecule DPB1*1401 (human); assay: inhibition of radiolabeled peptide binding to purified HLA-DP
[24] = biological target: T6, HLA-DP DPB1*0401 (human); assay: as above
T6 chain 1: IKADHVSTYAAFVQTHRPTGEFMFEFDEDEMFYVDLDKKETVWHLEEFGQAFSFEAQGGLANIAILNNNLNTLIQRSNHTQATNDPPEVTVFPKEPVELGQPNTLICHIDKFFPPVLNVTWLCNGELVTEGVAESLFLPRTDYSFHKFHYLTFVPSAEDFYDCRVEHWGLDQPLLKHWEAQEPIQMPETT
T6 chain 2: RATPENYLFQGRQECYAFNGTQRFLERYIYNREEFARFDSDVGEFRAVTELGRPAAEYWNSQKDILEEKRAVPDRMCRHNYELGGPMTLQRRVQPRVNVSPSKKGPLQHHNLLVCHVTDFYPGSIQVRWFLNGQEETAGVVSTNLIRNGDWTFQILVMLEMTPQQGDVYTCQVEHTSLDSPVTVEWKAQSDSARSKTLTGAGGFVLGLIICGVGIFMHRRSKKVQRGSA

[25] = biological target: T7, HLA DQ molecule DQB1*0501 (human, limits assumed); assay: inhibition of radiolabeled peptide binding to purified HLA class II
T7 MHC II alpha: not shown
T7 MHC II beta: not shown

[26] = biological target: T8, HLA DQ molecule DQB1*0302 (human, UniProt P01909 24-216; P01920 33-230, limits assumed); assay: as above
T8 MHC II alpha: not shown
T8 MHC II beta: not shown

[27] = biological target: T9, HLA-DP molecule DPB1*0401 (human); assay: inhibition of radiolabeled peptide binding to purified HLA-DP
T9 chain 1: T6 chain 1
T9 chain 2: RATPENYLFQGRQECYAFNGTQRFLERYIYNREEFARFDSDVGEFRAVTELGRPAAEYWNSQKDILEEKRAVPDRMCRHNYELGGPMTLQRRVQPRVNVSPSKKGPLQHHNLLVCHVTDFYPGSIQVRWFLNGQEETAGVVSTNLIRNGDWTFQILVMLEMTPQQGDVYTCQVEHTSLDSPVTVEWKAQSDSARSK

[28] = biological target: T10, HLA-DQ molecule DQB1*0501 (human, limits assumed); assay: inhibition of radiolabeled peptide binding to purified HLA-DQ
T10 MHC II alpha: not shown
T10 MHC II beta: not shown

[29] = biological target: HLA-DQ molecule DQB1*0602 (human); assay: inhibition of radiolabeled peptide binding to purified HLA
[30] = biological target: HLA-DQ molecule DQB1*0503 (human); assay: as above
[31] = biological target: HLA-DQ molecule DQB1*0502 (human); assay: as above
[32] = biological target: HLA-DQ molecule DQB1*0202 (human); assay: as above
[33] = biological target: T11, HLA-DQ molecule DQB1*0501 (human, limits assumed); assay: as above
T11 MHC II alpha: not shown
T11 MHC II beta: not shown

QKLMEDINVGFKAAV [Poa p 5 peptide, position 51 (Peptide ID 3324.1580)]
IC50 [1]: 5.21 µM
IC50 [2]: 8.07 µM
IC50 [3]: 1.29 µM

DSYKFIPTLVAAVKQ [Lol p 5 1 peptide, position 236, DSYKFIPTLVAAVKQ (Peptide ID 3324.1165)]
IC50 [4]: 0.0069 µM
IC50 [5]: 0.012 µM
IC50 [6]: 0.079 µM
IC50 [7]: 0.069 µM

INELIASGSEKLASV [Alt a 5 peptide, position 51, Peptide ID 3324.0065]
IC50 [8]: 25.9 µM
IC50 [9]: 7.54 µM
IC50 [10]: 0.302 µM

GGRLAFQEFMIVPCE [Alt a 6 peptide, position 161, Peptide ID 3324.0073]
IC50 [11]: 32.1 µM
IC50 [9]: 4.94 µM
IC50 [10]: 1.29 µM

NLNIKLNMPLYIAGN [Cha o 1 (96-110) peptide NLNIKLNMPLYIAGN]
IC50 [12]: 39.7 µM
IC50 [13]: 2.86 µM
IC50 [14]: 30.4 µM
IC50 [15]: 50 µM
IC50 [16]: 31.9 µM
IC50 [17]: 10.7 µM

EGTVDFIFGEARSLY [Sal k 1 1 peptide, position 191 (Peptide ID 3324.1590)]
IC50 [18]: 6.85 µM
IC50 [1]: 2.36 µM
IC50 [2]: 3.12 µM

QVAQYKALPVVLENA [Fel d 1 1 (46-60) peptide QVAQYKALPVVLENA, Peptide ID 3324.1051]
IC50 [19]: 1.6 µM
IC50 [20]: 21.4 µM
IC50 [21]: 0.552 µM
IC50 [22]: 0.61 µM

PAAAYATATPAAATA [Lol p 5 1 peptide, position 306, PAAAYATATPAAATA (Peptide ID 3324.1184)]
IC50 [4]: 12.4 µM
IC50 [5]: 0.611 µM
IC50 [23]: 0.299 µM
IC50 [7]: 3.49 µM

EGTVDFIFGEARSLY [Sal k 1 1 peptide 191-205, EGTVDFIFGEARSLY (Peptide ID 3324.1590)]
IC50 [24]: 2.04 µM

FTSLEYIEAAKWLLP [Sal k 1 1 peptide, position 321 (Peptide ID 3324.1589)]
IC50 [3]: 1.3 µM

ATPEAKFDSFVAAFT [Poa p 5 peptide, position 121 (Peptide ID 3324.1570)]
IC50 [18]: 8 µM
IC50 [1]: 0.91 µM

PAVKYIEPDMIVNAT [Pen ch 13 (101-115) peptide PAVKYIEPDMIVNAT, Peptide ID 3324.1304]
IC50 [19]: 0.549 µM
IC50 [25]: 0.119 µM
IC50 [21]: 1.96 µM
IC50 [26]: 0.822 µM
IC50 [22]: 1.79 µM

NDKFTVFEGAFNKAI [Pha a 5 peptide, position 181, NDKFTVFEGAFNKAI (Peptide ID 3324.1442)]
IC50 [5]: 0.097 µM
IC50 [6]: 0.613 µM
IC50 [7]: 0.028 µM
IC50 [27]: 0.177 µM

ERSLWIIFSKNLNIK [Cha o 1 (86-100) peptide ERSLWIIFSKNLNIK]
IC50 [13]: 0.432 µM
IC50 [28]: 0.729 µM
IC50 [17]: 0.301 µM

FKAAVAAAAGAPPAD [Poa p 5 peptide, position 61 (Peptide ID 3324.1575)]
IC50 [18]: 6.78 µM
IC50 [1]: 1.38 µM
IC50 [2]: 25.7 µM
IC50 [3]: 0.793 µM

AQGKAFYEAVAKAHQ [Alt a 7 peptide, position 190, Peptide ID 3324.0080]
IC50 [11]: 50 µM
IC50 [10]: 2.36 µM

EIYNMVKFRMIAGQE [Der p 4 peptide 3324.0978 (position 386)]
IC50 [29]: 0.368 µM
IC50 [30]: 11.2 µM
IC50 [31]: 26.6 µM
IC50 [32]: 29.1 µM
IC50 [33]: 3.71 µM

DINVGFKAAVAAAAG [Poa p 5 peptide, position 56 (Peptide ID 3324.1571)]
IC50 [18]: 5.41 µM
IC50 [3]: 0.034 µM
